Results on one substance are retold here after US20050244828A1.

For this experiment, the target named is CD22-Fc fusion protein (extra-cellular domain of human CD22 fused to human IgG Fc) (human) (UniProt P20273).

Take “BL22, a recombinant immunotoxin containing the FV domains of RFB4 fused to PE38, a truncated form of (from UniProt P11439 278-638)”: the percent inhibition of measured sCD22 level worked out at 50%.
